Measured values published in patent US20100172907A1 (Hoffmann-La Roche, published 2010).
Positions count from the first letter of the chain named. Groups on a side chain read outwards from the residue. No end group written: not given here. NSMP = not defined here

T1: BSA-conjugated Aβ heptapeptide FFAEDVC (C-terminal Cys coupled to NSMP-activated BSA)
T1 construct: also called Peptide 19-24
T1 peptide: FFAEDVC

T2: BSA-conjugated Aβ heptapeptide LVFFAEC (reading uncertain; also: BSA conjugate)
T2 construct: also called Peptide 17-22
T2 peptide: LVFFAEC([NSMP-BSA])

T3: BSA-conjugated Aβ heptapeptide VFFAEDC (C-terminal Cys coupled to NSMP-activated BSA)
T3 construct: also called Peptide 18-23
T3 peptide: VFFAEDC

T4: BSA-conjugated Aβ heptapeptide AEFRHDC (C-terminal Cys coupled to NSMP-activated BSA)
T4 construct: also called Peptide 2-7
T4 peptide: AEFRHDC

B1: MS-R #7.12 IgG1 (antibody, V domains shown)
VH: QVELVESGGGLVQPGGSLRLSCAASGFTFSSYGMSWVRQAPGKGLEWVSNISGSGSSTYYADSVKGRFTISRDNSKNTLYLQMNSLRAEDTAVYYCARGKGNTHKPYGYVRYFDVWGQGTLVTVSS
VL: DIVLTQSPATLSLSPGERATLSCRASQYVSSPYLAWYQQKPGQAPRLLISGSSNRATGVPARFSGSGSGTDFTLTISSLEPEDFAVYYCLQLYNIPNTFGQGTKVEIKR
notes: full-length human IgG1
B2: MS-R #7.11 IgG1 (antibody, V domains shown)
VH: B1 VH with G33A, N50A, S56G
VL: DIVLTQSPATLSLSPGERATLSCRASQSVSSSYLAWYQQKPGQAPRLLIYGASSRATGVPARFSGSGSGTDFTLTISSLEPEDFATYYCQQVYSPPHTFGQGTKVEIKR
notes: full-length human IgG1
B3: MSR 3.4.H7 IgG1 (antibody, V domains shown)
VH: QVQLVESGGGLVQPGGSLRLSCAASGFTFSSYAMSWVRQAPGKGLEWVSVISETGKNIYYADSVKGRFTISRDNSKNTLYLQMNSLRAEDTAVYYCARLTHYARYYRYFDVWGQGTLVTVSS
VL: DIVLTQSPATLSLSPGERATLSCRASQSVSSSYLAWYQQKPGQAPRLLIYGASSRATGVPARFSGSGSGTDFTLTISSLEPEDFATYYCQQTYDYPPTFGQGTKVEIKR
notes: full-length human IgG1
B4: MS-R #7.9.H7 IgG1 (antibody, V domains shown)
VH: B1 VH with G33A, N50A, S52N, G53A, S56T, S57R
VL: B2 VL with Q90L, V92I, S94N, P95M, H97I
notes: full-length human IgG1; also called MAB 31; MS-Roche IgG #7.9.H7
B5: MSR 7.9.H2 IgG1 (antibody, V domains shown)
VH: B1 VH with G33A, N50A, S52N, G53A, S54D, S56N, S57R, T58K
VL: B2 VL with Q90L, V92I, S94N, P95M, H97I
notes: full-length human IgG1
B6: MS-R IgG1 3.6.H5 × 3.6.L2 (antibody, V domains shown)
VH: ELVESGGGLVQPGGSLRLSCAASGFTFSSYAMSWVRQAPGKGLEWVSAISESGKTKYYADSVKGRFTISRDNSKNTLYLQMNSLRAEDTAVYYCARLTHYARYYRYFDVWGQGTLVTVSS
VL: B2 VL with S28F, V29L, S31R, S32Y, T86V, V92T, S94N, P95Y, H97P
notes: full-length human IgG1; VH entry starts at QLVESGG
B7: MS-R IgG1 7.9.H3 (antibody, V domains shown)
VH: B1 VH with G33A, N50A, S52N, G53Y, S54Q, S56N, S57R, T58K
VL: DIVLTQSPATLSLSPGERATLSCRASQSVSSSYLAWYQQKPGQAPRLLIYGASSRATGVPARFSGSGSGTDFTLTISSLEPEDFATYYCLQIYNMPITFGQGTKVEIK
notes: full-length human IgG1; also called 7.9H3 IgG
B8: MS-R IgG 7.11H2 (antibody, V domains shown)
VH: B1 VH with G33A, N50A, S52N, G53A, S54N, S56Y, S57K, T58K
VL: B2 VL
notes: full-length human IgG; also called 7.11H2 IgG
B9: MS-R IgG1 8.2.H2 (antibody, V domains shown)
VH: QVELVESGGGLVQPGGSLRLSCAASGFTFSSYAMSWVRQAPGKGLEWVSAISRTGSKTYYADSVKGRFTISRDNSKNTLYLQMNSLRAEDTAVYYCARLLSRGYNGYYHKFDVWGQGTLVTVSS
VL: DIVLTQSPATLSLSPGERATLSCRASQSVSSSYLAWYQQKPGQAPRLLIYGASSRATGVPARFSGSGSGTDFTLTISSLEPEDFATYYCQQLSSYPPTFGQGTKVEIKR
notes: full-length human IgG1
B10: MS-R IgG 8.2.H2 × 8.2.L1 (antibody, V domains shown)
VH: B9 VH
VL: B2 VL with S28R, S31G, S32R, V92L, Y93S, P95Y, H97P
notes: full-length human IgG
B11: MS-Roche #8.2.H1 Fab (Fab, V domains shown)
VH: B9 VH with E3Q, R53I, S56R, K57R, T58K
VL: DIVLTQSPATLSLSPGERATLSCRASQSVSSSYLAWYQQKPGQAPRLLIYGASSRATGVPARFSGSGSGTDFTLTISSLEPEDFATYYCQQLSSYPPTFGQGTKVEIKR
B12: MS-R IgG1 7.12.L1 (antibody, V domains shown)
VH: B1 VH with E3Q
VL: B1 VL with S30F, S31R, P32R
notes: full-length human IgG1
B13: MS-R IgG1 7.2.H4 (antibody, V domains shown)
VH: B1 VH with G33A, N50A, S52N, G53S, S54K, S57R, T58I
VL: B7 VL with L90Q, N94S, M95F, I97H
notes: full-length human IgG1
B14: MS-R IgG1 3.6.H8 × 3.6.L2 (antibody, V domains shown)
VH: B6 VH with S52Y, G53S, T55F
VL: B2 VL with S28F, V29L, S31R, S32Y, T86V, V92T, S94N, P95Y, H97P
notes: as for B6
B15: MS-R #7.11.H1×7.2.L1 IgG1 (antibody, V domains shown)
VH: ELVESGGGLVQPGGSLRLSCAASGFTFSSYAMSWVRQAPGKGLEWVSGINAAGFRTYYADSVKGRFTISRDNSKNTLYLQMNSLRAEDTAVYYCARGKGNTHKPYGYVRYFDVWGQGTLVTVSS
VL: B2 VL with S28Y, S30D, S31R, S32T, V92I, P95F
notes: full-length human IgG1; VH entry starts at QLVESGG; also called MAB 11
B16: MS-R IgG1 7.11.H1 × 7.11.L1 (antibody, V domains shown)
VH: B15 VH
VL: B2 VL with S28R, V29I, S30L, S31R, S32I
notes: as for B6
B17: MS-R IgG1 7.4.H2 × 7.2.L1 (antibody, V domains shown)
VH: B15 VH with G48A, A51Y, A52N, F54A, T56I
VL: B2 VL with S28Y, S30D, S31R, S32T, V92I, P95F
notes: as for B6

biological target: T5, Aβ (1-42) peptide (human); test: SPR, immobilized fibers
T5 construct: also called Aβ1-42 fibers; Aβ4
Description: (§1) Biacore2000 and Biacore3000 instruments were used for these measurements. Aβ1-40 and Aβ1-42 fibers were generated in vitro by incubation of synthetic peptides at a concentration of 200 μg/ml in 10 mM Na-acetate buffer (pH 4.0) for three days at 37° C. […] For binders with slow kinetics KD values were calculated by curve fitting of the time-dependent sensor responses, i.e. from the ratio of koff/kₒₙ. Binders with fast kinetics were analyzed by fitting the concentration-dependent sensor responses at equilibrium (adsorption-isotherms). KD values were calculated from the Biacore sensograms based on the total Fab concentration as determined by a protein assay. […] Briefly, time-dependent protein binding to Aβ1-40 fibers immobilized on the Biacore chip was measured during the association phase under mass-limited conditions at different flow rates of the analyte solution.

| Kd [nM] | Binder |
| --- | --- |
| 13.7 | B1 |
| 5.7 | B2 |

biological target: T6, human Aβ (1-40) peptide (human); test: SPR, immobilized fibers
T6 construct: also called Aβ1-40 fibers
Description: as §1

| Kd [nM] | Binder |
| --- | --- |
| 3.1 | B1 |
| 2.3 | B2 |

Biological target: T1, BSA-conjugated Aβ heptapeptide FFAEDVC
Test: ELISA
Description: (§2) 50 μl of NSMP activated BSA (6.7 mg/ml) was diluted with 50 μl of PBS, 0.1% sodium azide and 10 μl of peptide solution (1 mM in DMSO) was added. As negative control activated BSA was mock-treated without peptide addition. After 4 hrs at room temperature the reaction was stopped by addition of 10 μl of 10 mM Cystein. An aliquot of the conjugate reaction mixture was diluted 1:100 with 0.1M sodium bicarbonate buffer and immediately filled into the wells (100 μl) of ELISA plates (Nunc Immuno-Plate). After standing 16 hrs at 4° C. 100 μl blocking buffer (as above) was added to each well and incubated for another 30 minutes. The plates were washed with 2×300 μl/well TBST (as above) and filled with 100 μl antibody at 10 μg/ml or 2 μg/ml in blocking buffer. The plates were kept 16 hours at 4° C. and washed with 2×300 μl TBST. 100 μl/well HRP-conjugated anti-human Ig H+L (Pierce, dilution 1:1000 with blocking buffer) was added and incubated for 1 hour at ambient temperature. The plates were washed with 3×300 μl/well TBST. Colour development was started by addition of 100 μl tetra-methyl benzidine/hydrogen peroxide reagent.

| OD ratio 19-24/BSA | Peptide-ratio 19-24/2-7 | Binder |
| --- | --- | --- |
| 15 | 0.68 | B3 |
| 10 | 0.33 | B4 |
| 11 | 0.58 | B1 |
| 6 | 0.46 | B5 |
| 8 | 0.73 | B6 |
| 6 | 0.46 | B7 |
| 6 | 0.6 | B8 |
| 14 | 0.78 | B9 |
| 25 | 1.92 | B10 |

Biological target: T2, BSA-conjugated Aβ heptapeptide LVFFAEC
Test: ELISA
Description: as §2

| OD ratio 17-22/BSA | Peptide-ratio 17-22/2-7 | Binder |
| --- | --- | --- |
| 3 | 0.14 | B3 |
| 5 | 0.17 | B4 |
| 11 | 0.58 | B1 |
| 5 | 0.38 | B5 |
| 7 | 0.64 | B6 |
| 6 | 0.46 | B7 |
| 6 | 0.6 | B8 |
| 10 | 0.56 | B9 |
| 20 | 1.54 | B10 |

Biological target: T3, BSA-conjugated Aβ heptapeptide VFFAEDC
Test: ELISA
Description: as §2

| OD ratio 18-23/BSA | Peptide-ratio 18-23/2-7 | Binder |
| --- | --- | --- |
| 16 | 0.73 | B3 |
| 16 | 0.53 | B4 |
| 13 | 0.68 | B1 |
| 8 | 0.62 | B5 |
| 9 | 0.82 | B6 |
| 8 | 0.62 | B7 |
| 7 | 0.7 | B8 |
| 15 | 0.83 | B9 |
| 25 | 1.92 | B10 |

Biological target: T4, BSA-conjugated Aβ heptapeptide AEFRHDC
Test: ELISA
Description: as §2

| OD ratio 2-7/BSA | Binder |
| --- | --- |
| 22 | B3 |
| 30 | B4 |
| 19 | B1 |
| 13 | B5 |
| 11 | B6 |
| 13 | B7 |
| 10 | B8 |
| 18 | B9 |
| 13 | B10 |

Biological target: T1, BSA-conjugated Aβ heptapeptide FFAEDVC
Test: ELISA
Remark: another data set of the same source
Description: as §2

| OD ratio 19-24/BSA | Peptide-ratio 19-24/2-7 | Binder |
| --- | --- | --- |
| 20 | 0.94 | B11 |

Biological target: T2, BSA-conjugated Aβ heptapeptide LVFFAEC
Test: ELISA
Remark: another data set of the same source
Description: as §2

| OD ratio 17-22/BSA | Peptide-ratio 17-22/2-7 | Binder |
| --- | --- | --- |
| 7 | 0.34 | B11 |

Biological target: T3, BSA-conjugated Aβ heptapeptide VFFAEDC
Test: ELISA
Remark: another data set of the same source
Description: as §2

| OD ratio 18-23/BSA | Peptide-ratio 18-23/2-7 | Binder |
| --- | --- | --- |
| 23 | 1.05 | B11 |

Biological target: T4, BSA-conjugated Aβ heptapeptide AEFRHDC
Test: ELISA
Remark: another data set of the same source
Description: as §2

| OD ratio 2-7/BSA | Binder |
| --- | --- |
| 22 | B11 |

biological target: T5, Aβ (1-42) peptide; test: SPR, immobilized fibers, equilibrium responses
Description: as §1

| Kd [nM] | Binder |
| --- | --- |
| 2.1 | B11 |

biological target: T6, human Aβ (1-40) peptide; test: SPR, immobilized fibers, equilibrium responses
Description: as §1

| Kd [nM] | Binder |
| --- | --- |
| 1.6 | B11 |

biological target: T5, Aβ (1-42) peptide; test: SPR, immobilized fibers; remark: another data set of the same source
Description: as §1

| Kd [nM] | Binder |
| --- | --- |
| 13.7 | B1 |
| 5.7 | B2 |

biological target: T6, human Aβ (1-40) peptide; test: SPR, immobilized fibers; remark: another data set of the same source
Description: as §1

| Kd [nM] | Binder |
| --- | --- |
| 3.1 | B1 |
| 2.3 | B2 |

biological target: T5, Aβ (1-42) peptide; test: SPR Scatchard, higher affinity (bivalent)
Description: (§3) Binders with fast kinetics were analyzed by fitting the concentration-dependent sensor responses at equilibrium (adsorption-isotherms). KD values were calculated from the Biacore sensograms based on the total Fab concentration as determined by a protein assay. […] Briefly, time-dependent protein binding to Aβ1-40 fibers immobilized on the Biacore chip was measured during the association phase under mass-limited conditions at different flow rates of the analyte solution.
(§4) KD values of IgG binding to Aβ1-40 and Aβ1-42 fibers were determined in the Biacore. Briefly, a kinetic model for the stepwise formation of a bivalent complex was used, and KD values were calculated by Scatchard type analysis of equilibrium binding. Due to the very slow association process at low antibody concentration (several hours to reach equilibrium) equilibrium binding data were obtained by extrapolation of the association curves to long time intervals. The on- and off rates for the formation of the monovalent and bivalent complex were determined via the curve fit procedure and used for the extrapolation. Based on these Req values a Scatchard analysis was performed and KD values for the formation of the monovalent and the bivalent complex were determined.

| Kd [nM] | Binder |
| --- | --- |
| 0.1 to 0.3 | B3 |
| 0.24 to 0.7 | B4 |
| 0.74 to 2.9 | B12 |
| 0.1 to 0.66 | B13 |
| 0.22 to 0.82 | B14 |
| 0.11 to 0.38 | B5 |
| 0.2 to 0.95 | B6 |
| 0.15 to 0.67 | B15 |
| 0.13 to 0.7 | B16 |
| 0.1 to 0.4 | B7 |
| 0.12 to 0.56 | B17 |
| 0.12 to 0.92 | B9 |

biological target: T6, human Aβ (1-40) peptide; test: SPR Scatchard, higher affinity (bivalent)
Description: as §3, §4

| Kd [nM] | Binder |
| --- | --- |
| 0.1 to 0.3 | B3 |
| 0.25 to 0.69 | B4 |
| 1.2 to 3.5 | B12 |
| 0.09 to 0.3 | B13 |
| 0.22 to 0.95 | B14 |
| 0.12 to 0.42 | B5 |
| 0.2 to 1.03 | B6 |
| 0.14 to 0.66 | B15 |
| 0.11 to 0.7 | B16 |
| 0.1 to 0.5 | B7 |
| 0.12 to 0.63 | B17 |
| 0.16 to 1 | B9 |
